Five compounds from patent US20060003399A1, “High throughput actin polymerization assay” (Cytokinetics, Inc., priority 2004, published 2006) can be followed below.

One series concerns the target T1, Arp2/3 complex.
T1 construct: from tissue
Nature of the series: Actin polymerization assay comparing FL-WASP/N-WASP and truncated forms of WASP. Type of series: biochemical, human. On the procedure:
1. A cellular extract containing Arp2/3 complex was prepared from an Arp2/3 source such as human platelets (see, e.g., U.S. Provisional Application No. 60/578,969, filed Jun. 10, 2004; Welch and Mitchison (Meth. Enzymology 298:52-61,1988); and Higgs, H. N. et al. (Biochemistry 38:15212-15222, 1999), all of which are incorporated herein by reference in their entirety for all purposes).
Samples containing candidate agents (individually or as mixtures) are placed into wells on a multi-well plate. Mix 1 is added to each of the wells and mixed with the candidate agent. A sample of Mix 2 is then introduced into each well and the resulting mixture thoroughly mixed. Typically, Mix 1 and Mix 2 are mixed in 1:1 ratio (e.g., 50 μl each of Mix 1 and Mix 2).
Actin polymerization is measured as a function of time by exciting pyrene at 365 nm and by detecting an increase in fluorescence emission at 407 nm, or by exciting acrylodan at 405 nm and by detecting an increase in fluorescence emission at 460 nm. The change in fluorescence over time is utilized to determine a fluorescence parameter (e.g., maximal velocity, time to half maximal fluorescence intensity, or area under the curve of a plot of fluorescence versus time; see e.g., FIGS. 5A-5F).
Arp2/3 was purified as described in Example 1.
In a second set of experiments, the ability of various truncated forms of WASP were compared to the activity of the full-length protein. […] FL-WASP, 105 WASP and the VCA (see Example 2) domain were tested. The results of these trials were plotted to obtain EC50 values. The results are provided in FIG. 8 and in the chart below.

The nature of series [1]: Solubility of purified full-length WASP / N-WASP. It counts as physicochemical. As to conditions: purified TAP-tag protein from 293 cells.
For the next series, the target named is Arp2/3. Put plainly: Activities of WASP/N-WASP proteins (Table 4). Type of series: biochemical. From the text: The term “variant” or “analogue” generally refers to proteins that are functional equivalents to a native sequence that have similar amino acid sequences and retain, to some extent, one of the activities of the corresponding native protein. Variants/analogues include fragments that retain one or more activities of the corresponding native protein. Examples of WASP and N-WASP activity include, but are not limited to, capacity to: 1) bind Arp2/3 and actin; 2) activate the actin nucleation activity of Arp2/3 (descriptions of assays to detect nucleation activity are provided below); 3) bind an upstream regulator; 4) be regulated by one or more upstream regulators, thereby rendering the WASP or N-WASP protein able to activate the nucleation activity of Arp2/3; and 5) bind downstream regulators initiating signal transduction cascades. Some of the WASP and N-WASP proteins that are provided are able to recapitulate the full activity of WASP or N-WASP, which means that these proteins have all five of the activities just listed. […]
A third class of NPF proteins that can be utilized in some assays include WASP, N-WASP and SCAR proteins that include the WH1 domain but in which the PolyPro region is (e.g., deleted). A fourth class of NPF proteins that can be utilized in some assays are WASP, N-WASP and SCAR deletion mutants in which the PolyPro region is maintained but an N-terminal region (e.g., WH1 domain) is at least partially removed. Some proteins in this class are ones that include the B, CRIB/GBD (WASP and N-WASP), PolyPro and VCA domains, but in which some or all of the WH1 has been removed. One specific example is 98N-WASP, which includes amino acids 98-501 of SEQ ID NO:4. Another specific example is the 105WASP protein, which includes amino acids 105-501 of SEQ ID NO:2 (see FIG. 4B).
As indicated in this table, specific examples of fusion proteins that can be utilized include those that include a segment that encodes full-length WASP or N-WASP, including: Myc-WASP-TAP (SEQ ID NO:14); and Myc-N-WASP-TAP (SEQ ID NO: 16). Examples of fusion proteins that include a WASP or N-WASP deletion mutant domain include: GST-105WASP (SEQ ID NO:18); Myc-105WASP-TAP (SEQ ID NO:20); GST-tev-98N-WASP (SEQ ID NO:22); and Myc-98N-WASP-TAP (SEQ ID NO:24). The TAP tag in these particular fusion proteins has the general structure CBP-tev-ProtA (SEQ ID NO:36). Fusion proteins such as those listed in Table 4 can in some instances be utilized directly, or after one or both of the C- and N-terminal tags are removed. For example, the fusion proteins listed in Table 4 as having a TAP tag can be used once the TAP tag has been cleaved off and/or after the C-terminal tag has been removed.

The test system of another series is PMA-treated THP-1 cells. Put plainly: Macrophage podosome formation assay. It counts as cell-based, human. The following applies: FIG. 13. On the procedure: Positive hits from the in vitro screening assays are tested for effects on macrophage podosome formation. Macrophages express Arp2/3 and WASP, the latter of which is required for podosome formation. A typical cell-based secondary assay of this type includes the human monocytic cell ine THP-1, which undergoes macrophage differentiation and podosome formation in response to exposure to the phorbol ester, phorbol-12-myristate-13-acetate (PMA) (50 nM). A nuclear stain and an actin stain are used to detect and quantify the number of podosomes/cell in the absence or presence of positive hits from the in vitro screening assays. An example of the use of this assay is provided in Example 14 and is illustrated in FIG. 13.
In this assay, positive hits from the in vitro screening assays are tested for effects on macrophage podosome formation. […] A nuclear stain and an actin stain are used to quantify the number of podosomes/cell in a culture of differentiated THP-1 cells in the absence or presence of positive hits from the in vitro screening assays. […]
Podosomes in the THP-1 cells were visualized using a nuclear stain and an actin stain as follows. […] The fraction of THP-1 cells positive for podosomes was quantified using Image Express software (Molecular Devices, Inc.). […]

Take “FL-WASP: full length human WASP (SEQ ID NO:2), nucleation promoting factor”: in the series with Arp2/3 complex, the “potency as Arp2/3 complex activator compared with truncated derivatives (in words)” value is on record as “more potent Arp2/3 complex activator than certain truncated derivatives”. In addition, the “concentration that stimulated production of maximal concentration of barbed ends” value with Arp2/3 complex (500 nM Cdc42, 2.5 nm Arp2/3 complex, 3.5 μM actin) is 3 nM. Further, the “activity of FL-WASP relative to 105 WASP” value with Arp2/3 complex (500 nM Cdc42, 2.5 nm Arp2/3 complex, 3.5 μM actin, FIG. 8) is given as “approximately 20 times”. Moreover, the “stimulation of actin polymerization by the protein alone (in words)” value with Arp2/3 complex (without activators, FIG. 7) is reported as “weakly stimulate actin polymerization”. Further, in series [1], the “solubility (in words)” value is “completely soluble”. In the series with Arp2/3, the “Activate Arp2/3?” value was “Yes”; the “Regulated By Which Upstream Regulators?” value is “Cdc42, PIP2, Nck and Rac1”.
“Myc-N-WASP-TAP: fusion protein of full-length N-WASP (SEQ ID NO:16)”: in the series with Arp2/3, the “Activate Arp2/3?” value is on record as “Yes”; the “Regulated By Which Upstream Regulators?” value is “Cdc42, PIP2, Nck and Rac1”.
As to `COC(=O)Nc1nc2ccc(C(=O)c3cccs3)cc2[nH]1` [nocodazole], in the series on PMA-treated THP-1 cells, the “podosome formation (fraction of THP-1 cells positive for podosomes), in words” value was “prevented podosome formation in PMA-treated THP-1 cells in a dose-dependent manner”.
Regarding “Myc-WASP-TAP: fusion protein of full-length WASP (SEQ ID NO:14)”, in the series with Arp2/3, the “Activate Arp2/3?” value is reported as “Yes”; the “Regulated By Which Upstream Regulators?” value was “Cdc42, PIP2, Nck and Rac1”.
For “N-WASP VCA Domain: VCA domain of N-WASP (SEQ ID NO:8)”, in the series with Arp2/3, the “Activate Arp2/3?” value was “Yes” and the “Regulated By Which Upstream Regulators?” value is reported as “None”.
